Results from the NTF2 design screens of Basanta et al. (2020).

Test: protease stability score; higher = more stable; yeast display proteolysis, trypsin and chymotrypsin;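 note: log10 excess protease needed over predicted unfolded state with 0 meaning unfolded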

Compared with “DEDARKQAQRWITNLNNGNEKEVSKQFDPNARMDVGNRDVHGTEQLLQKLRTRLKQARQSIELRDIDRQGDNLQLDVRMEFVHNGQPDDVRFTVQMNYHNGKIKRANWRIPEEDQKKLER”, “DEDARRKVEEFMDLMRNNNPEELAKLADPNATVHYGDKVVHGREQAMEWWKKFLTELRVDIKSVSIRVSGNKIDVEVDMIVQVNGRPVTLNWRFSFNFNNGKIEQIHVHISEEQQERIHS” is higher in protease stability score: 0.165 for the first, 0.68 for the second.

First: DEDARRRVHEFFEAIENNDREKLKELADPNVQANYGDKQVRGREQLAEWVDKLHKELRVHFRLKSLDNRGDKIEIRMRVILDINGRPQTQDVTMEMRFHNGRIKHVQVHVDERQLKQKKK
Second: DEDARSNFQELLKALQTGDERLFEKNVDPNVTFRYGDKTLTGRHHIMEQLRRDKENSRQDFDVKEWHFHGNRIDVKAQLRFEKNGKPDTVDVNLVAIAHNGRIQEIQIDVQK
The protease stability score of the first is higher: 0.942 for the first, -0.278 for the second.

Going from “DEDASKELQRLARENDFKRIAELADENASAQIGDNVWHGREKILTNLKRMQDQVDHQRIHSIRTHGNKLRVTVRMVVNGRDFTFRFVIEVENGRVVSIDIKATSEKDKKKMNEVIG” to “DEDASKQVEDFERALKTGDENRLHELMDKDARVEVGDKRYHGRKQIARQQVQHYEEMRVDLHVQDIDVQGDKIKVDVTRQIEVNGKPISNRIIIYVTIHNGKIQRMDVDVPDEDMDKIEK”, the protease stability score rises from -0.158 to 0.769.

Compared with “DEDASRHVRDMIRALQTGDRDKVARYIDPNATMQVGDKRYHGNERIKEQVKRTKDTMRYHMEIKDVHVEGDHIKVDFTFSNNKNGTPTSDRAQIDIRMTNGHATSIVLHNNK”, “DEDASRRMIEMVENLQTGNEEEFKKYVDPNVRIEYGDKRVSGRDQATKWWRSEFTEIRFSMRVQSYSVDGNKVDITVRATFDHNGKPEDKKYKLDIQLHNGHIKKLEITDDS” is higher in protease stability score: -0.001 for the first, 1.31 for the second.

Compared with “DEDATDNVRQWFEARNQNDENRLMQLVDPNAKIQVGDKFVHGKEDLEKQVKREKDQIHLHMKDMKFTDTGDTVKVRIDYRDEHNGRPKEDRMVAYATVHNGRIENLEVDSDR”, “DEDAVKAYERLLTAWNHGDPDQAKHQVDPNVRVQVGDKQIHGREELARQIERRRREANIHNQLEDYRDNGEEIQLHVEVTEDHNGNPDTKTYTAYAQFTNGKMQELTINDHG” is lower in protease stability score: -0.179 for the first, -0.219 for the second.

Going from “DEDAVKLAQEVWKAMHTGDEDKFVKLVDPNARVKIGDKDIHGKDDIKKQLHNRNREIRVRLKHIEIDQNGDQARIHMRFQMTHDGQPRDQSATATMRAQGDKLKSISVTNHG” to “DEDAVKLFHNVQHVIEQGDKDKAVKNFDPNASAKVGDKEVHGMEDWVRTLVKEASQLRIDLKWDDYRVHGDKINMNIELNKEHNGHPSTTRMHIDAHVHNGRVKFVAYNRRP”, the protease stability score rises from -0.206 to 0.066.

Compared with “DEDAVKSASNAAQHGDFVRMAEEMRDNPEARYGDKDVRGREEVIRVVRILMEQVDSVKVKRVRVHGEKVTADLKFRVNGREFHANAVVVMDNGRFVKLVLHFTDSDFKHELHKRLE”, “DEDAVKVAEKFVEVEETGSEDDFKRLADKDAKIRVGENHVHGRESLLDELRKRRKQINIVIHHVRAEDRGDKVDVEIEAVDERNGKPNQYNVKFKVKMHNGRVKQIDRDRDR” is lower in protease stability score: 1.17 for the first, 0.168 for the second.

Going from “DEDAVNRYEEFVENLKSNNEHKLSEYLDPNVRLVIGDKTLHGKDNFRRRVRHMTKHMRLQLNYKDLKVQGEEIHVHADVRQTHDGKPQNTHFSASMRVNGDKAKEITIKDDG” to “DEDAVRKAIELFKQQETGNPEEVKKLADPNARMVVGDKTFTGMDTINEHLRKLRKEARIRNDIKRYEVNGDKATIEFRQERDHNGRPDTHLVKITIKVTNGRVKVIEIQDKS”, the protease stability score falls from 0.207 to 0.175.

Compared with “DEDAVRKAKQWVKALRDGDEDELREQVDPNARINVGDKTFHGMDEFVKDVLKTHSEQRVNFDIKSVNASNGRVDMKMDATFDINGEPKTFSLVLTVDFHNGRAKQLEVKFDPKVKEDLTK”, “DEDAVRLAHKFQDVLNKGDPDKAMRLADPNARVQIGDTEIRGREQLSHHVNEMSNSIRFDLKHVDAQTRGDHVDVRVDQINEVDGRPTRNTDKMTIQIKNGKIVNVNVRVDEDRKQQERD” is lower in protease stability score: 0.769 for the first, -0.632 for the second.

Going from “DEDAVRNASTMVEAERRGDENTIQKMMDKHATVKYGDTEVHGREDAARQIRKTHREIRIQVDHYTVEAHNGRVRVEIRVVVNVNGTPYEYHYDYYAEVHNGKFKHIEINVDPDLEDKLKK” to “DEDAVRRVKDMIRNLKSGNPDDAARYADPNARFDIGDWHIDGRKQLVKKLRDITRHMRYKFEMRSVDVTGNKLKFKATAHVSVNGRPITYHMTASIIVHNGHVTHVDQQLPEELLKRIEQ”, the protease stability score rises from -0.16 to 0.785.

First: DEDAVRVMETYMKIYETGNPEELNRLVDPNVKFNIGDQRIKGREHARKFWRKILQHSRVELRRLDVHTRPNRVEARAEVVVNHNGKPKNFQFTFSAHLHNGRIKEVTIKHSK
Second: DEDAYRKLDTFKKVEEKGDTDRLRKLADPNVEIQVGDRQIRGMHHFAKDVHDKKRHIDIDVHIDEYDVDGNKIQIHAHNKQHVNGKPFNFTVVMWVRIHNGSIKKMKYRIDPDQLRKIRR
The protease stability score of the first is higher: 1.34 for the first, 0.227 for the second.

Compared with “DEDDANQVERDLRENDWDQLVRNFDEDARIQIGDYTIHGREDYKRWLEEVEKQVDKVEIKQVDIHGNNIVVDYRQQVNGQHVRAIMVITMDNGKIKEMHVDVRSEDAKRAYERIFR”, “DEDDANRVAQEILRALIEGDEKKVADLVDEDARISIGDHKFRGREQIREAVREFTEEVDHVKLESITADNGHAEATAILDINGKNQRVTFHVEVHNGRAKEVSMTSG” is higher in protease stability score: 0.525 for the first, 1.05 for the second.

For “DEDDARKVRKLAKTNDWDELVHRFRDDVRFKVGNQRYSGRENAQTVAQELRKKVDHIRITSLHSTPGHVVLHMTMVVNGRKITVVIFIRMDNGRAVSFSLRVRDEEVKKHITQAFS”, the protease stability score was 0.141.
